{"source": "the supplement of paper PMC9112550", "about": "“Optimization of the antimicrobial peptide Bac7 by deep mutational scanning” (BMC Biology, 2022);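 further: peptides expressed intracellularly from a pBAD plasmid library in pooled LB shake-flask culture, induced with 0.3% L-arabinose, DNA abundance read by NGS, three biological replicates, DESeq2 with apeglm shrinkage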"}
{"system": "Escherichia coli TOP10", "test": "shrunken log2 fold change of peptide-encoding DNA abundance (4.5 h post-induction vs induction); higher = less antimicrobial activity (less host growth inhibition)", "conditions": "time post-induction: 4.5 h; library: site-saturation at positions 5, 18, 19, 20"}
{"sequence": "RRIRGRPPRLPRPRPRPAPKPRP", "shrunken log2 fold change": 1.18}
{"sequence": "RRIRCRPPRLPRPRPRPSMKPRP", "shrunken log2 fold change": -0.567}
{"sequence": "RRIRKRPPRLPRPRPRPADQPRP", "shrunken log2 fold change": -0.0199}
{"sequence": "RRIRTRPPRLPRPRPRPADTPRP", "shrunken log2 fold change": -0.215}
{"sequence": "RRIRNRPPRLPRPRPRPWPIPRP", "shrunken log2 fold change": -0.0597}
{"sequence": "RRIRTRPPRLPRPRPRPVHHPRP", "shrunken log2 fold change": -0.321}
{"sequence": "RRIRTRPPRLPRPRPRPRCCPRP", "shrunken log2 fold change": 0.0734}
{"sequence": "RRIRMRPPRLPRPRPRPHAMPRP", "shrunken log2 fold change": -0.0135}
{"sequence": "RRIRPRPPRLPRPRPRPYASPRP", "shrunken log2 fold change": -0.0775}
{"sequence": "RRIRNRPPRLPRPRPRPCAYPRP", "shrunken log2 fold change": -0.139}
{"sequence": "RRIRDRPPRLPRPRPRPHYKPRP", "shrunken log2 fold change": -0.297}
{"sequence": "RRIRHRPPRLPRPRPRPRDEPRP", "shrunken log2 fold change": -0.0872}
{"sequence": "RRIRMRPPRLPRPRPRPDLAPRP", "shrunken log2 fold change": 1.4}
{"sequence": "RRIRNRPPRLPRPRPRPQDNPRP", "shrunken log2 fold change": 0.0553}
{"sequence": "RRIRLRPPRLPRPRPRPTIPPRP", "shrunken log2 fold change": 0.0895}
{"sequence": "RRIRRRPPRLPRPRPRPQETPRP", "shrunken log2 fold change": 0.00135}
{"sequence": "RRIRDRPPRLPRPRPRPMDQPRP", "shrunken log2 fold change": 0.326}
{"sequence": "RRIRERPPRLPRPRPRPNWMPRP", "shrunken log2 fold change": -0.24}
{"sequence": "RRIRDRPPRLPRPRPRPEFVPRP", "shrunken log2 fold change": 0.204}
{"sequence": "RRIRQRPPRLPRPRPRPCPEPRP", "shrunken log2 fold change": -0.249}
{"sequence": "RRIRARPPRLPRPRPRPKRCPRP", "shrunken log2 fold change": 0.079}
{"sequence": "RRIRWRPPRLPRPRPRPWPYPRP", "shrunken log2 fold change": -0.0146}
{"sequence": "RRIRERPPRLPRPRPRPGYMPRP", "shrunken log2 fold change": -0.172}
{"sequence": "RRIRYRPPRLPRPRPRPWIGPRP", "shrunken log2 fold change": -0.314}
{"sequence": "RRIRARPPRLPRPRPRPKSVPRP", "shrunken log2 fold change": 0.0188}
{"sequence": "RRIRRRPPRLPRPRPRPMNRPRP", "shrunken log2 fold change": -0.321}
{"sequence": "RRIRRRPPRLPRPRPRPVPHPRP", "shrunken log2 fold change": 0.449}
{"sequence": "RRIRTRPPRLPRPRPRPEEMPRP", "shrunken log2 fold change": 0.133}
{"sequence": "RRIRARPPRLPRPRPRPYMVPRP", "shrunken log2 fold change": -0.583}
{"sequence": "RRIRSRPPRLPRPRPRPNWVPRP", "shrunken log2 fold change": -0.214}
{"sequence": "RRIRGRPPRLPRPRPRPYFQPRP", "shrunken log2 fold change": -0.161}
{"sequence": "RRIRWRPPRLPRPRPRPMCRPRP", "shrunken log2 fold change": -0.117}
{"sequence": "RRIRWRPPRLPRPRPRPFRLPRP", "shrunken log2 fold change": -0.394}
{"sequence": "RRIRQRPPRLPRPRPRPDEIPRP", "shrunken log2 fold change": -0.00251}
{"sequence": "RRIRARPPRLPRPRPRPDDEPRP", "shrunken log2 fold change": 1.43}
{"sequence": "RRIRKRPPRLPRPRPRPDTVPRP", "shrunken log2 fold change": 0.00611}
{"sequence": "RRIRDRPPRLPRPRPRPAPTPRP", "shrunken log2 fold change": 0.684}
{"sequence": "RRIRYRPPRLPRPRPRPMLAPRP", "shrunken log2 fold change": -0.269}
{"sequence": "RRIRERPPRLPRPRPRPYIDPRP", "shrunken log2 fold change": -1.51}
{"sequence": "RRIRMRPPRLPRPRPRPMVAPRP", "shrunken log2 fold change": 0.12}
{"sequence": "RRIRCRPPRLPRPRPRPNTGPRP", "shrunken log2 fold change": -0.657}
{"sequence": "RRIRWRPPRLPRPRPRPIICPRP", "shrunken log2 fold change": -0.523}
{"sequence": "RRIRIRPPRLPRPRPRPKSKPRP", "shrunken log2 fold change": -0.298}
{"sequence": "RRIRQRPPRLPRPRPRPPYFPRP", "shrunken log2 fold change": 0.245}
{"sequence": "RRIRKRPPRLPRPRPRPPYWPRP", "shrunken log2 fold change": 0.429}
{"sequence": "RRIRERPPRLPRPRPRPEFGPRP", "shrunken log2 fold change": -0.171}
{"sequence": "RRIRQRPPRLPRPRPRPAQGPRP", "shrunken log2 fold change": -0.0366}
{"sequence": "RRIRWRPPRLPRPRPRPPLLPRP", "shrunken log2 fold change": 0.395}
{"sequence": "RRIRFRPPRLPRPRPRPRVVPRP", "shrunken log2 fold change": 0.298}
{"sequence": "RRIRKRPPRLPRPRPRPSMTPRP", "shrunken log2 fold change": -0.0765}
{"sequence": "RRIRIRPPRLPRPRPRPSVDPRP", "shrunken log2 fold change": -0.326}
{"sequence": "RRIRSRPPRLPRPRPRPPYIPRP", "shrunken log2 fold change": -0.296}
{"sequence": "RRIRHRPPRLPRPRPRPTTMPRP", "shrunken log2 fold change": -0.261}
{"sequence": "RRIRQRPPRLPRPRPRPKCEPRP", "shrunken log2 fold change": 0.0276}
{"sequence": "RRIRHRPPRLPRPRPRPNGWPRP", "shrunken log2 fold change": 0.42}
{"sequence": "RRIRMRPPRLPRPRPRPWLGPRP", "shrunken log2 fold change": 0.221}
{"sequence": "RRIRHRPPRLPRPRPRPYCAPRP", "shrunken log2 fold change": -0.346}
{"sequence": "RRIRHRPPRLPRPRPRPHCMPRP", "shrunken log2 fold change": -0.0295}
{"sequence": "RRIRDRPPRLPRPRPRPSRYPRP", "shrunken log2 fold change": -0.219}
{"sequence": "RRIRDRPPRLPRPRPRPFRRPRP", "shrunken log2 fold change": 0.0456}
{"sequence": "RRIRGRPPRLPRPRPRPHAGPRP", "shrunken log2 fold change": 1.06}
{"sequence": "RRIRRRPPRLPRPRPRPSCGPRP", "shrunken log2 fold change": 0.0769}
{"sequence": "RRIRKRPPRLPRPRPRPIVGPRP", "shrunken log2 fold change": 0.117}
{"sequence": "RRIRKRPPRLPRPRPRPDYLPRP", "shrunken log2 fold change": 0.111}
{"sequence": "RRIRRRPPRLPRPRPRPTMNPRP", "shrunken log2 fold change": -0.0748}
{"sequence": "RRIRARPPRLPRPRPRPYELPRP", "shrunken log2 fold change": -0.101}
{"sequence": "RRIRHRPPRLPRPRPRPYTSPRP", "shrunken log2 fold change": -0.00159}
{"sequence": "RRIRGRPPRLPRPRPRPSQMPRP", "shrunken log2 fold change": 0.0878}
{"sequence": "RRIRNRPPRLPRPRPRPMLMPRP", "shrunken log2 fold change": -0.0217}
{"sequence": "RRIRQRPPRLPRPRPRPCVCPRP", "shrunken log2 fold change": -0.0231}
{"sequence": "RRIRHRPPRLPRPRPRPKHPPRP", "shrunken log2 fold change": -0.0271}
{"sequence": "RRIRTRPPRLPRPRPRPKVMPRP", "shrunken log2 fold change": -0.243}
{"sequence": "RRIRGRPPRLPRPRPRPVETPRP", "shrunken log2 fold change": 0.689}
{"sequence": "RRIRCRPPRLPRPRPRPLVTPRP", "shrunken log2 fold change": -0.195}
{"sequence": "RRIRARPPRLPRPRPRPNWNPRP", "shrunken log2 fold change": -0.0314}
